Laboratory results reported in the supplement of paper PMC9732359.
± gives the uncertainty stated by the source.

Assay: protein stability index of a GFP-peptide fusion (yeast GPS) (PSI 1-4); higher = more stable; sorted into four equal gates, so the index is relative within each strain
In short: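 The protein stability index combines read frequencies across sorting gates, each weighted by its gate number and then summed. To obtain those frequencies, a pooled yeast library of GFP fusions to tiled 17-residue yeast protein peptides, on a plasmid also expressing Cherry, was grown to mid-log phase in leucine-free medium. The cells were sorted into four equal gates by GFP/Cherry ratio before plasmid amplification by PCR and Illumina sequencing.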

LNLLNYQELFIQPKNSD [YML103C/NUP188]
protein stability index (doa10∆): 2.57 ± 0.06
protein stability index (pdr5∆): 2.21 ± 0.056
protein stability index (san1∆): 2.35 ± 0.054
protein stability index (ubr1∆): 2.3 ± 0.045

TSSLQLYKFQNFQDLSY [YML103C/NUP188]
protein stability index (doa10∆): 2.81 ± 0.065
protein stability index (pdr5∆): 3.04 ± 0.064
protein stability index (san1∆): 2.84 ± 0.055
protein stability index (ubr1∆): 2.65 ± 0.071

MTRILPQQSRYISFIKD [RPN2]
protein stability index (doa10∆): 2.16 ± 0.057
protein stability index (pdr5∆): 2.6 ± 0.057
protein stability index (san1∆): 1.87 ± 0.067
protein stability index (ubr1∆): 1.92 ± 0.053

TVLQKNSLLLDSTPEEV [YML103C/NUP188]
protein stability index (doa10∆): 2 ± 0.052
protein stability index (pdr5∆): 2.28 ± 0.063
protein stability index (san1∆): 1.38 ± 0.079
protein stability index (ubr1∆): 1.42 ± 0.049

FVTRKSRKRAKKMTKKA [PRP8]
protein stability index (doa10∆): 3.02 ± 0.075
protein stability index (pdr5∆): 2.91 ± 0.12
protein stability index (san1∆): 2.61 ± 0.11
protein stability index (ubr1∆): 2.95 ± 0.12

LQKKFVTKQSELNSSED [SMC1]
protein stability index (pdr5∆): 3.52 ± 0.26

DLTLDDISLKADLERFF [YJL039C/NUP192]
protein stability index (doa10∆): 3.29 ± 0.053
protein stability index (pdr5∆): 3.35 ± 0.076
protein stability index (san1∆): 3.41 ± 0.036
protein stability index (ubr1∆): 3.23 ± 0.039

VKAQRPITGASLDLIKE [RPL24A]
protein stability index (doa10∆): 2.42 ± 0.062
protein stability index (pdr5∆): 2.07 ± 0.049
protein stability index (san1∆): 2.69 ± 0.074
protein stability index (ubr1∆): 2.73 ± 0.05

LKESIKNSTSSMTAVPK [RPN1]
protein stability index (doa10∆): 3.02 ± 0.096
protein stability index (pdr5∆): 3.31 ± 0.1
protein stability index (san1∆): 3.14 ± 0.1
protein stability index (ubr1∆): 3.2 ± 0.084

LLKGPASTVAKTAPIQE [YOR098C/NUP1]
protein stability index (doa10∆): 2.52 ± 0.1
protein stability index (pdr5∆): 2.46 ± 0.094
protein stability index (san1∆): 1.91 ± 0.18
protein stability index (ubr1∆): 2.87 ± 0.071

KCKEVGITAVHVKIRAT [RPS14B]
protein stability index (doa10∆): 2.39 ± 0.063
protein stability index (pdr5∆): 1.64 ± 0.051
protein stability index (san1∆): 1.7 ± 0.1
protein stability index (ubr1∆): 2.19 ± 0.043

KAGKITTIEEIFLHSLP [RPS2]
protein stability index (doa10∆): 2.8 ± 0.11
protein stability index (pdr5∆): 2.69 ± 0.12
protein stability index (san1∆): 2.52 ± 0.082
protein stability index (ubr1∆): 2.94 ± 0.066

YDPQRDKRFSGSLKLPN [RPL1A]
protein stability index (doa10∆): 3.09 ± 0.065
protein stability index (pdr5∆): 3.33 ± 0.068
protein stability index (san1∆): 3.02 ± 0.052
protein stability index (ubr1∆): 3.08 ± 0.048

YLIDHIKVEGAVGNLGN [RPL22A]
protein stability index (doa10∆): 2.9 ± 0.17
protein stability index (pdr5∆): 3.11 ± 0.16
protein stability index (san1∆): 2.89 ± 0.092
protein stability index (ubr1∆): 3.21 ± 0.11

QINQGVPSAKPLILTPP [SNF11]
protein stability index (doa10∆): 2.75 ± 0.055
protein stability index (pdr5∆): 2.3 ± 0.052
protein stability index (san1∆): 2.8 ± 0.058
protein stability index (ubr1∆): 2.02 ± 0.032

TNNDSNNKNNSITTGND [MED2]
protein stability index (doa10∆): 2.69 ± 0.1
protein stability index (pdr5∆): 2.64 ± 0.057
protein stability index (san1∆): 2.7 ± 0.081
protein stability index (ubr1∆): 1.87 ± 0.043

TYEIICDQTKSVPLMIN [RRP43]
protein stability index (doa10∆): 1.66 ± 0.073
protein stability index (pdr5∆): 2.3 ± 0.11
protein stability index (san1∆): 1.49 ± 0.11
protein stability index (ubr1∆): 1.55 ± 0.069

KVVLKALFLSKINRPPV [RPL18A]
protein stability index (doa10∆): 2.28 ± 0.12
protein stability index (pdr5∆): 1.53 ± 0.067
protein stability index (san1∆): 1.41 ± 0.16
protein stability index (ubr1∆): 1.46 ± 0.083

WHGVHRNPARLMETLRT [RPB2]
protein stability index (doa10∆): 1.35 ± 0.073
protein stability index (pdr5∆): 1.3 ± 0.066
protein stability index (san1∆): 1.55 ± 0.18
protein stability index (ubr1∆): 1.2 ± 0.045

NPLWNAIIVAGVQSNGD [PRE4]
protein stability index (doa10∆): 1.25 ± 0.054
protein stability index (pdr5∆): 1.37 ± 0.044
protein stability index (san1∆): 1.53 ± 0.075
protein stability index (ubr1∆): 1.89 ± 0.04

YKVLKQTHPDTGISQKS [HTB1]
protein stability index (doa10∆): 2.42 ± 0.077
protein stability index (pdr5∆): 2.51 ± 0.074
protein stability index (san1∆): 2.21 ± 0.081
protein stability index (ubr1∆): 1.68 ± 0.04

GKVVKNVLLLDSNGDFN [RRP46]
protein stability index (doa10∆): 3.35 ± 0.068
protein stability index (pdr5∆): 3.22 ± 0.058
protein stability index (san1∆): 3.29 ± 0.063
protein stability index (ubr1∆): 3.27 ± 0.043

FLRQKICLMTLIETVFV [RPN9]
protein stability index (doa10∆): 1.37 ± 0.12
protein stability index (pdr5∆): 1.32 ± 0.12
protein stability index (san1∆): 1.06 ± 0.14
protein stability index (ubr1∆): 1.94 ± 0.28

ERAARVVKGRVEKTLLS [RPO31]
protein stability index (doa10∆): 3.37 ± 0.19
protein stability index (pdr5∆): 3.27 ± 0.18
protein stability index (ubr1∆): 3.5 ± 0.1

YHNLTTHNSYEKACQVL [RPN6]
protein stability index (doa10∆): 3.33 ± 0.071
protein stability index (pdr5∆): 3.11 ± 0.058
protein stability index (san1∆): 3.1 ± 0.063
protein stability index (ubr1∆): 2.99 ± 0.037

DEISPELLSKYKEQIIQ [SNU114]
protein stability index (doa10∆): 2.44 ± 0.079
protein stability index (pdr5∆): 2.57 ± 0.08
protein stability index (san1∆): 2.42 ± 0.079
protein stability index (ubr1∆): 2.68 ± 0.075

NADFQKPWFATVNGQAR [FAS1]
protein stability index (doa10∆): 2.41 ± 0.066
protein stability index (pdr5∆): 2.37 ± 0.11
protein stability index (san1∆): 2.45 ± 0.082
protein stability index (ubr1∆): 2.87 ± 0.1

VTKLNVLVDEIKSQYYS [YIL149C/MLP2]
protein stability index (doa10∆): 2.36 ± 0.066
protein stability index (pdr5∆): 2.33 ± 0.052
protein stability index (san1∆): 2.35 ± 0.074
protein stability index (ubr1∆): 2.28 ± 0.037

PLKTQTKNGTPNPNNMK [GAL11]
protein stability index (doa10∆): 2.98 ± 0.085
protein stability index (pdr5∆): 2.94 ± 0.084
protein stability index (san1∆): 2.73 ± 0.046
protein stability index (ubr1∆): 2.95 ± 0.043

AVHSIIALSRRFLLNGR [YDL116W/NUP84]
protein stability index (doa10∆): 2.11 ± 0.086
protein stability index (pdr5∆): 1.56 ± 0.069
protein stability index (san1∆): 2.06 ± 0.14
protein stability index (ubr1∆): 1.99 ± 0.085

GIRYIRLKQVFNRALDQ [NNF1]
protein stability index (doa10∆): 1.79 ± 0.035
protein stability index (pdr5∆): 1.95 ± 0.027
protein stability index (san1∆): 2.04 ± 0.036
protein stability index (ubr1∆): 2.12 ± 0.025

EIDHVEYYVMMDFANLW [SRB8]
protein stability index (doa10∆): 2.98 ± 0.067
protein stability index (pdr5∆): 2.69 ± 0.054
protein stability index (san1∆): 2.81 ± 0.056
protein stability index (ubr1∆): 2.92 ± 0.036

LLSSESNIPTLIEKLQG [YDL116W/NUP84]
protein stability index (doa10∆): 2.42 ± 0.091
protein stability index (pdr5∆): 3.01 ± 0.11
protein stability index (san1∆): 2.6 ± 0.047
protein stability index (ubr1∆): 3.07 ± 0.072

ITIQDLLFPKSTIVNLA [DPB4]
protein stability index (doa10∆): 2.45 ± 0.066
protein stability index (pdr5∆): 2.71 ± 0.11
protein stability index (san1∆): 2.51 ± 0.069
protein stability index (ubr1∆): 2.59 ± 0.083

PQLTFTHVANFMNDAAA [YML103C/NUP188]
protein stability index (doa10∆): 3.04 ± 0.094
protein stability index (pdr5∆): 3 ± 0.082
protein stability index (san1∆): 2.7 ± 0.068
protein stability index (ubr1∆): 2.95 ± 0.05

NEIESRQLTSLGSKKEL [SNU114]
protein stability index (doa10∆): 3.17 ± 0.075
protein stability index (pdr5∆): 3.28 ± 0.078
protein stability index (san1∆): 3.31 ± 0.092
protein stability index (ubr1∆): 3.37 ± 0.058

EHVILGNGELYMDCLLY [SNU114]
protein stability index (doa10∆): 2.31 ± 0.053
protein stability index (pdr5∆): 2.73 ± 0.073
protein stability index (san1∆): 2.76 ± 0.086
protein stability index (ubr1∆): 2.67 ± 0.063

SEFDSRVKAMEVDEKPT [RPT5]
protein stability index (doa10∆): 2.77 ± 0.11
protein stability index (pdr5∆): 2.76 ± 0.089
protein stability index (san1∆): 3.08 ± 0.14
protein stability index (ubr1∆): 2.97 ± 0.062

APIPIREDIDDPLAKVN [BRR2]
protein stability index (doa10∆): 2.9 ± 0.075
protein stability index (pdr5∆): 2.66 ± 0.07
protein stability index (san1∆): 2.55 ± 0.09
protein stability index (ubr1∆): 2.22 ± 0.059

LKTNFETEWNLQTLAAD [RPB11]
protein stability index (doa10∆): 2.79 ± 0.13
protein stability index (pdr5∆): 2.91 ± 0.11
protein stability index (san1∆): 2.53 ± 0.079
protein stability index (ubr1∆): 2.67 ± 0.1

PQEESVSPNISSASPSA [SIR3]
protein stability index (doa10∆): 2.99 ± 0.048
protein stability index (pdr5∆): 3.15 ± 0.046
protein stability index (san1∆): 3.01 ± 0.034
protein stability index (ubr1∆): 3.03 ± 0.028

NDFFIIYYTPAFFHLFA [YJL039C/NUP192]
protein stability index (doa10∆): 1.41 ± 0.058
protein stability index (pdr5∆): 1.57 ± 0.043
protein stability index (san1∆): 1.62 ± 0.073
protein stability index (ubr1∆): 1.58 ± 0.042

ANKLSKSHSTVSSSSRH [ISW2]
protein stability index (doa10∆): 2.9 ± 0.066
protein stability index (pdr5∆): 2.63 ± 0.069
protein stability index (san1∆): 2.71 ± 0.056
protein stability index (ubr1∆): 2.93 ± 0.037

SKGYPIQFLTIGAGVPS [FAS1]
protein stability index (doa10∆): 1.4 ± 0.032
protein stability index (pdr5∆): 1.64 ± 0.045
protein stability index (san1∆): 1.34 ± 0.061
protein stability index (ubr1∆): 1.34 ± 0.036

LAKKTHKQELQDLILDL [SMC4]
protein stability index (doa10∆): 3.07 ± 0.083
protein stability index (pdr5∆): 3.25 ± 0.088
protein stability index (san1∆): 3.14 ± 0.055
protein stability index (ubr1∆): 3.05 ± 0.067

GESARRFQKCFPPGVIG [RPC40]
protein stability index (doa10∆): 2.24 ± 0.1
protein stability index (pdr5∆): 2.34 ± 0.18
protein stability index (ubr1∆): 2.83 ± 0.12

TLRTISFKGSPNERKAK [SNF2]
protein stability index (doa10∆): 3.19 ± 0.17
protein stability index (san1∆): 2.74 ± 0.15
protein stability index (ubr1∆): 2.51 ± 0.13

TISSADFIQNVGRLWDQ [ECM29]
protein stability index (doa10∆): 2.98 ± 0.15
protein stability index (pdr5∆): 3.5 ± 0.14
protein stability index (san1∆): 3.39 ± 0.083
protein stability index (ubr1∆): 3.42 ± 0.061

WIWDMNVHGSLEPFLLM [BRR2]
protein stability index (doa10∆): 1.61 ± 0.06
protein stability index (pdr5∆): 2.08 ± 0.078
protein stability index (san1∆): 1.72 ± 0.2
protein stability index (ubr1∆): 1.81 ± 0.077

LEDKLRAVLTPLITRHC [RRP46]
protein stability index (doa10∆): 2.53 ± 0.059
protein stability index (pdr5∆): 2.2 ± 0.05
protein stability index (san1∆): 2.33 ± 0.064
protein stability index (ubr1∆): 2.44 ± 0.035

WVLHRDLKPANIMVTID [SSN3]
protein stability index (doa10∆): 1.28 ± 0.18
protein stability index (pdr5∆): 1.98 ± 0.14
protein stability index (ubr1∆): 2.48 ± 0.14

GIDINTKIFNSVAEVFQ [YCG1]
protein stability index (doa10∆): 2.08 ± 0.1
protein stability index (pdr5∆): 2.93 ± 0.12
protein stability index (san1∆): 2.39 ± 0.12
protein stability index (ubr1∆): 2.86 ± 0.067
